# Patent US20040213788A1 (published 2004)
# T1: soluble human RANKL protein (human, UniProt O14788 140-317, limits assumed, biotinylated at a 20:1 molar ratio of NHS-biotin to protein (in the competition ELISA only))
# T1 construct: Soluble form; Biotinylated in the ELISA, unlabelled in the cell assays; also called shRANKL; sRANKL
# T1 sequence (looked up): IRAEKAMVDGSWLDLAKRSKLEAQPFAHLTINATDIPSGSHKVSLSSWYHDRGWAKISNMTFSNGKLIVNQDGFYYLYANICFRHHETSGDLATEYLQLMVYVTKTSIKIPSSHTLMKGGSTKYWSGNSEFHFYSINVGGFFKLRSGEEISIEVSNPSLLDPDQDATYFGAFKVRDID
# Legend:
# [1] = target: T1, soluble human RANKL protein; test: competition ELISA: soluble RANK-Fc inhibits biotinylated shRANKL (0.43 nM) binding to coated RANK-Fc
# Description: (§1) A. A competition ELISA was established using a human RANK-Fc fusion protein coated on plastic and a biotinylated soluble human RANKL protein for detection in solution. The RANK-FC and RANKL proteins were produced in CHO cells and Pichia pastoris, respectively, and purified to >90% homogeneity. The shRANKL (soluble, human RANKL) protein was biotinylated at a 20:1 molar ratio of NHS-biotin to protein (Pierce, Rockford, Ill.) according to the manufacturer's specifications. 96-well ELISA plates were coated overnight at 4° C. with 50 ng/well ([…]) RANK-Fc in pH 9.6 carbonate-bicarbonate buffer. Plates were washed in pH 7.4 Tris-Saline buffer containing 0.1% Tween 20 and blocked for 2 h at RT in 1% BSA/PBS. Competitor proteins (RANK-Fc; death receptor 5 (DR5)-Fc; OPG-Fc; RANKL mAb 14F3) were diluted in 0.01% Tween 20/PBS and added to wells prior to the addition of biotinylated shRANKL (0.43 nM) and the combined samples were incubated for 2 hrs at room temperature. The amount of biotinylated shRANKL bound to coated RANK-Fc (+/−competitor) was measured using alkaline phosphatase conjugated streptavidin. The substrate for signal detection was 105 PNPP (Pierce Inc., Rockford, Ill.) and absorbence measured at 405 nm using a Spectra Max 340 plate reader.
# [2] = target: T1, soluble human RANKL protein; test: cell-based or functional assay
# [3] = target: T1, soluble human RANKL protein; test: competition ELISA: inhibition of biotinylated shRANKL (0.43 nM) binding to coated RANK-Fc
# Description: as §1
# [4] = target: T1, soluble human RANKL protein; test: not described; paragraph 32 names optical biosensor analysis for Kd
IC50 [1] [nM],IC50 [3] [nM],Kd [4] [nM],Binder,"IC50, formation of multinuclear cells (human monocyte osteoclastogenesis) [2] [µg/mL]"
~6,–,–,"human RANK-Fc fusion protein (Fc fusion, UniProt Q9Y6Q6 30-212, looked up, not shown: a dimerising Fc or GST) IAPPCTSEKHYEHLGRCCNKCEPGKYMSSKCTTTSDSVCLPCGPDEYLDSWNEEDKCLLHKVCDTGKALVAVVAGNSTTPRRCACTAGYHWSQDCECCRRNTECAPGLGAQHPLQLNKDTVCKPCLAGYFSDAFSSTDKCRPWTNCTFLGKRVEHHGTEKSDAVCSSSLPARKPPNEPHVYLP",~0.5
–,~2,~0.1,"mouse monoclonal antibody 14F3 (antibody, V domains shown, Whole mouse IgG2a/kappa purified from hybridoma; also called 14F3 mAb; RANKL mAb 14F3) VH: EVQLVESGGDLVKPGGSLKLSCAASGFTFSRYGMSWVRQTPDKRLEWVATISSGGSYTYYPDSVKGRFTISRDNAKNTLYLQMSSLKSEDTAMYYCARLDGYNYRWYFDVWGTGTTVTVSS VL: DIVMTQSHKFMSTSVGDRVSITCKASQDVSSAVAWYQQKPGQSPKLLIYSASYRYTGVPDRFTGSGSGTDFTFTISSVQAEDLAVYYCQQHYSSPRTFGGGTNLEIKR",~4
–,~0.5,–,"OPG-Fc (Fc fusion, UniProt O00300 22-201, looked up, also called osteoprotegerin-Fc; not shown: Fc part; not described) ETFPPKYLHYDEETSHQLLCDKCPPGTYLKQHCTAKWKTVCAPCPDHYYTDSWHTSDECLYCSPVCKELQYVKQECNRTHNRVCECKEGRYLEIEFCLKHRSCPPGFGVVQAGTPERNTVCKRCPDGFFSNETSSKAPCRKHTNCSVFGLLLTQKGNATHDNICSGNSESTQKCGIDVTL",–
